Test results as given in patent publication US20040018972A1 (TRILLIUM THERAPEUTICS, published 2004).

Columns and labels:
[1] = target: T1, DEC205 on mouse dendritic cells (mouse, UniProt Q60767 28-1723); test: co-capping: DC pre-incubated with SH1.2.47 and anti-rat Ig at 37 C, then FACS staining of the other surface molecules
T1 construct: whole, on cells
Protocol: (§1) FIG. 3 is FACS analysis of the effect of pretreatment of DC with anti-MD-1 antibody on cell surface expression of molecules on dendritic cells. Cells in the columns shown were preincubated (60 minutes at 4° C.) in medium, rat anti-DC26, or anti-MD-1 (SH1.2.47), prior to washing and incubation at 37° C. with anti-rat Ig. Thereafter cells were stained with different mAbs as in FIG. 2.

[2] = target: T2, CD86 (B7-2) on mouse dendritic cells (mouse, UniProt P42082 24-309); test: as above
T2 construct: whole, on cells
T2 sequence (looked up): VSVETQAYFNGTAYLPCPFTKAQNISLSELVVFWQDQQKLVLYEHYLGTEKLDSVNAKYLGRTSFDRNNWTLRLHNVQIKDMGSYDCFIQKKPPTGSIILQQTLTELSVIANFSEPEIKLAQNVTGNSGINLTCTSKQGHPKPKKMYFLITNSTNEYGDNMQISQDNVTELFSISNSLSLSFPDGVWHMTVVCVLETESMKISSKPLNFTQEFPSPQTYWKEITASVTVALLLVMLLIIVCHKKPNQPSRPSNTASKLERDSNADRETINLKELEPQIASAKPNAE
Protocol: as §1

[3] = target: T3, CD80 (B7-1) on mouse dendritic cells (mouse, UniProt Q00609 38-306); test: as above
T3 construct: whole, on cells
T3 sequence (looked up): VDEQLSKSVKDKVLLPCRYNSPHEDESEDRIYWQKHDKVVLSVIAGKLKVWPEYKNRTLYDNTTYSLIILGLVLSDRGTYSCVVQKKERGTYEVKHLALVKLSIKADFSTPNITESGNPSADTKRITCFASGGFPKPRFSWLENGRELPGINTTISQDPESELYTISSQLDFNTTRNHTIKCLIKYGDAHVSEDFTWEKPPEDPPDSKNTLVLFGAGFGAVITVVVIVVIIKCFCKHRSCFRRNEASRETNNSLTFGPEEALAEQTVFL
Protocol: as §1

[4] = target: T4, OX-2 (CD200) on mouse dendritic cells (mouse, UniProt O54901 31-278); test: as above
T4 construct: whole, on cells
T4 sequence (looked up): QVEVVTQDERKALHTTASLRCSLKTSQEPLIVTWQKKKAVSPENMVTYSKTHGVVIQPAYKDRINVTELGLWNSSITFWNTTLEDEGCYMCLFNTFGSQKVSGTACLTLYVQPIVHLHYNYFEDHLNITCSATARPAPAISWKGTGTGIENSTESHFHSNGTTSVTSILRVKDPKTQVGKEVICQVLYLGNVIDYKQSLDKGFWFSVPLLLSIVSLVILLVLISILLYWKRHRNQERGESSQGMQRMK
Protocol: as §1

[5] = target: T5, CD14 on mouse dendritic cells (mouse, UniProt P10810 16-336); test: co-capping on DC: anti-CD14 staining reduced after capping of MD-1 with SH1.2.47 (FACS)
T5 construct: whole, on cells
T5 sequence (looked up): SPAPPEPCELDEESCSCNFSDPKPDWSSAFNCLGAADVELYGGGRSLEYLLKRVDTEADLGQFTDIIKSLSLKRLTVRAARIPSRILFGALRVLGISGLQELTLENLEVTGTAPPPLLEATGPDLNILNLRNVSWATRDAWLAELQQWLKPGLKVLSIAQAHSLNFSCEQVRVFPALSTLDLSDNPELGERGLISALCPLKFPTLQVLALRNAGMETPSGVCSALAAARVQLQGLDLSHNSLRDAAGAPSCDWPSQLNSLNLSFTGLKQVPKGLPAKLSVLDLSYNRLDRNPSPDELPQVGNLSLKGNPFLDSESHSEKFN
Protocol: as §1

T1 sequence (Q60767 28-1723): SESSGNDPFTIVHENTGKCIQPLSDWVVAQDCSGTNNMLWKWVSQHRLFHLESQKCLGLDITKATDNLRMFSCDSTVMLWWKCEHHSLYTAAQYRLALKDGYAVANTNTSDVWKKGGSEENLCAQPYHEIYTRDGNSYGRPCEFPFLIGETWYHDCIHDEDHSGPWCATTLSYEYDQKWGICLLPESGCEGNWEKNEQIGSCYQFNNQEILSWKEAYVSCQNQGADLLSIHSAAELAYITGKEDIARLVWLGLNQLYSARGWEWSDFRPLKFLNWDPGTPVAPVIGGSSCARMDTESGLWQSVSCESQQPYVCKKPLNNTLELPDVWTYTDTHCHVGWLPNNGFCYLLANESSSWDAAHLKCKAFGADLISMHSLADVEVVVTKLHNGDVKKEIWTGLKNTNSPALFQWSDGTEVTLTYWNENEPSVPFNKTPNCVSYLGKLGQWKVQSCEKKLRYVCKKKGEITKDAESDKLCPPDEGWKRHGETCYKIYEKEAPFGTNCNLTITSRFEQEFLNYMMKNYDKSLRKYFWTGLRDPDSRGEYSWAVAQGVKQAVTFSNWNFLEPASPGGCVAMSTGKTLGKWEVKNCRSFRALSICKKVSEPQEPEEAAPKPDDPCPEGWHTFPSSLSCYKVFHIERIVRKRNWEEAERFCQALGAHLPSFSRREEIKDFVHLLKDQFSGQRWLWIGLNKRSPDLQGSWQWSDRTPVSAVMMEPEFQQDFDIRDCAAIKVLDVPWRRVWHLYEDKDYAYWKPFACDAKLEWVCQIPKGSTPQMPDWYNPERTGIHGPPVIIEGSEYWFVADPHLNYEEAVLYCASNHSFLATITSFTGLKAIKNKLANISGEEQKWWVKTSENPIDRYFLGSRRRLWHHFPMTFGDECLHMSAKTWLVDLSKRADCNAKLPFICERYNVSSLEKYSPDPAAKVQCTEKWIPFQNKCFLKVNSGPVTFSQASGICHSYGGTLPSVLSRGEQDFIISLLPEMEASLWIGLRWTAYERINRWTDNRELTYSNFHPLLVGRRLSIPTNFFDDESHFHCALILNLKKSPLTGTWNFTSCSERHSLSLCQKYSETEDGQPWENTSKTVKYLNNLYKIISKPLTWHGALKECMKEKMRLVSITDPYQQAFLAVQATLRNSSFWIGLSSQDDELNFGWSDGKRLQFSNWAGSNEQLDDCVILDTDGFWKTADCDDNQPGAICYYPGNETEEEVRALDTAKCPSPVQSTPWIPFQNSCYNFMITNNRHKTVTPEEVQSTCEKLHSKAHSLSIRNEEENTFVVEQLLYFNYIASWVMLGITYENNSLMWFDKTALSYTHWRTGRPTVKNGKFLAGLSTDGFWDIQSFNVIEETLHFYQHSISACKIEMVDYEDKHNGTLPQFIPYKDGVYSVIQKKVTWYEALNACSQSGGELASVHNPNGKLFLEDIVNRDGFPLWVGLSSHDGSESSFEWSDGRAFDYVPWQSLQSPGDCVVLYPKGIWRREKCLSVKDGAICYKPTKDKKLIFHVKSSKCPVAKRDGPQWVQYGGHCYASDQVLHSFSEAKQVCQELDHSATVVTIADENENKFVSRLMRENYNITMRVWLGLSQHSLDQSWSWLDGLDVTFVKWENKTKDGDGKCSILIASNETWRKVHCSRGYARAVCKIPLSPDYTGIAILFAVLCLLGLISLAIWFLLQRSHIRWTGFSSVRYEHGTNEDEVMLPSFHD

B1: murine MD-1 (other, UniProt O88188 20-162, looked up)
chain: DHGSENGWPKHTACNSGGLEVVYQSCDPLQDFGLSIDQCSKQIQSNLNIRFGIILRQDIRKLFLDITLMAKGSSILNYSYPLCEEDQPKFSFCGRRKGEQIYYAGPVNNPGLDVPQGEYQLLLELYNENRATVACANATVTSS
notes: whole, on cells; also called mouse MD-1
- binding result [1]: no binding
- binding result [2]: no binding
- binding result [3]: no binding
- binding result [4]: no binding
- binding result [5]: binds
